Measurements taken from patent CN115028723A (dated 2022).

Molecular target: T1, 重组人IL-1β (novoprotein, CG93) (human, UniProt P01584 117-269)
T1 construct: The supplier is stated for the immunogen; also called rHuman IL-1β; hIL-1β
Experiment: Biacore SPR, antibody captured on Protein A chip, IL-1β as analyte, 1:1 Langmuir fit

B1: 阳性对照抗体CAN (卡纳单抗, Canakinumab) (antibody, human IgG1, kappa, V domains shown)
VH: QVQLVESGGGVVQPGRSLRLSCAASGFTFSVYGMNWVRQAPGKGLEWVAIIWYDGDNQYYADSVKGRFTISRDNSKNTLYLQMNGLRAEDTAVYYCARDLRTGPFDYWGQGTLVTVSS
VL: EIVLTQSPDFQSVTPKEKVTITCRASQSIGSSLHWYQQKPDQSPKLLIKYASQSFSGVPSRFSGSGSGTDFTLTINSLEAEDAAAYYCHQSSSLPFTFGPGTKVDIKR
notes: Signal peptide added for expression is left out; also called Ilaris
Binder B1 has a Kd of 0.0153 nM, a koff of 6.01e-05 s⁻¹ and a kon of 3.93e+06 M⁻¹ s⁻¹.
